Data published in IntAct's records for PubMed 20798051.

Target: fgfr4_human FGFR4 (UniProt P22455)
Sequence of UniProt P22455 (P22455 whole entry, looked up): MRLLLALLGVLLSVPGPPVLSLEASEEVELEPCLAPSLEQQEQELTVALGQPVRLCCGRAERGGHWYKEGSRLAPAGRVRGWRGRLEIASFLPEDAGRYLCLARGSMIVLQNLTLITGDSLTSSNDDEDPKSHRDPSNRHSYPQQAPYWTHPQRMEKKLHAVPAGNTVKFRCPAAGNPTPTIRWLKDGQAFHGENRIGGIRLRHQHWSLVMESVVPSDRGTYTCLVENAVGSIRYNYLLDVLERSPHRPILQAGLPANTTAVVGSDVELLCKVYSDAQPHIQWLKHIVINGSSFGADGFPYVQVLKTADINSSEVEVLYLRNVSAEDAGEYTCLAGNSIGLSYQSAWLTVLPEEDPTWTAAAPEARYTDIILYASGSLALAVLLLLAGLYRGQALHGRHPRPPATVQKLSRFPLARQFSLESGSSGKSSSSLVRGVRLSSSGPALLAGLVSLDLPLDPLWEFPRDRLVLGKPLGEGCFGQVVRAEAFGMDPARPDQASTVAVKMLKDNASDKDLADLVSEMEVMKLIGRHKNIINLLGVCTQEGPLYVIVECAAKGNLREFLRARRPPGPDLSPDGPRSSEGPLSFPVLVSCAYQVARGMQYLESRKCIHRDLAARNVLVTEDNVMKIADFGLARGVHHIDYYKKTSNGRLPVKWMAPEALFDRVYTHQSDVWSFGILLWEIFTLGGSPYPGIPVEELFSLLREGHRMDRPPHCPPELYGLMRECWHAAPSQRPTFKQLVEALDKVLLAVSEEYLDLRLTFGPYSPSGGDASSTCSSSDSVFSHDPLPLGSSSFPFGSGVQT

| Substance | effect of a mutation on the interaction |
| --- | --- |
| Matrix metalloproteinase-14 (Homo sapiens) (from UniProt P50281) E240A | decreasing interaction |
| Matrix metalloproteinase-14 (Homo sapiens) (from UniProt P50281) Y573F | decreasing interaction |
